{"source": "patent US20150125458A1", "about": "(Janssen / Centocor, published 2015)", "binders": {"B1": {"name": "C17F319 Fab variant W100a to F (Fab, V domains shown)", "VH": "EVQLVQSGAEVKKPGESLKISCKGSGYSFTSYWIGWVRQMPGKGLEWMGIIDPSDSDTRYSPSFQGQVTISADKSISTAYLQWSSLKASDTAMYYCARVGPADVFDSFDYWGQGTLVTVSS", "VL": "DIVMTQSPDSLAVSLGERATINCKSSQSVLLSPWNSNQLAWYQQKPGQPPKLLIYGASTRESGVPDRFSGSGSGTDFTLTISSLQAEDVAVYYCQQYYLIPSTFGQGTKVEIK", "notes": "also called W→F"}, "B2": {"name": "C17F319 Fab variant W100a to R (Fab, V domains shown)", "VH": "EVQLVQSGAEVKKPGESLKISCKGSGYSFTSYWIGWVRQMPGKGLEWMGIIDPSDSDTRYSPSFQGQVTISADKSISTAYLQWSSLKASDTAMYYCARVGPADVRDSFDYWGQGTLVTVSS", "VL": "DIVMTQSPDSLAVSLGERATINCKSSQSVLLSPWNSNQLAWYQQKPGQPPKLLIYGASTRESGVPDRFSGSGSGTDFTLTISSLQAEDVAVYYCQQYYLIPSTFGQGTKVEIK", "notes": "also called W→R"}, "B3": {"name": "C17F319 Fab variant W100a to I (Fab, V domains shown)", "VH": "EVQLVQSGAEVKKPGESLKISCKGSGYSFTSYWIGWVRQMPGKGLEWMGIIDPSDSDTRYSPSFQGQVTISADKSISTAYLQWSSLKASDTAMYYCARVGPADVIDSFDYWGQGTLVTVSS", "VL": "DIVMTQSPDSLAVSLGERATINCKSSQSVLLSPWNSNQLAWYQQKPGQPPKLLIYGASTRESGVPDRFSGSGSGTDFTLTISSLQAEDVAVYYCQQYYLIPSTFGQGTKVEIK", "notes": "also called W→I"}, "B4": {"name": "C17F319 Fab variant W100a to T (Fab, V domains shown)", "VH": "EVQLVQSGAEVKKPGESLKISCKGSGYSFTSYWIGWVRQMPGKGLEWMGIIDPSDSDTRYSPSFQGQVTISADKSISTAYLQWSSLKASDTAMYYCARVGPADVTDSFDYWGQGTLVTVSS", "VL": "DIVMTQSPDSLAVSLGERATINCKSSQSVLLSPWNSNQLAWYQQKPGQPPKLLIYGASTRESGVPDRFSGSGSGTDFTLTISSLQAEDVAVYYCQQYYLIPSTFGQGTKVEIK", "notes": "also called W→T"}, "B5": {"name": "C17F319 Fab variant W100a to Y (Fab, V domains shown)", "VH": "EVQLVQSGAEVKKPGESLKISCKGSGYSFTSYWIGWVRQMPGKGLEWMGIIDPSDSDTRYSPSFQGQVTISADKSISTAYLQWSSLKASDTAMYYCARVGPADVYDSFDYWGQGTLVTVSS", "VL": "DIVMTQSPDSLAVSLGERATINCKSSQSVLLSPWNSNQLAWYQQKPGQPPKLLIYGASTRESGVPDRFSGSGSGTDFTLTISSLQAEDVAVYYCQQYYLIPSTFGQGTKVEIK", "notes": "also called W→Y"}}, "key": {"human CCL17": {"biological_target": "T1, human CCL17 (human, UniProt Q92583 24-94)", "T1 construct": "Biotinylated in the ELISA screens; also called huCCL17; Bt-huCCL17", "T1 sequence": "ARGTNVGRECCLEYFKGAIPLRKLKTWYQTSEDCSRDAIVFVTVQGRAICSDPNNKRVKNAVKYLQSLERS", "assay": "ranking Fab ELISA with bt-human and bt-cyno CCL17"}, "cyno CCL17": {"biological_target": "T2, cyno CCL17 (Macaca fascicularis (cyno), UniProt Q8HYP9 24-94 (rhesus entry))", "T2 construct": "Biotinylated in the ELISA screens; also called cCCL17; Macaca fascicularis CCL17", "T2 sequence": "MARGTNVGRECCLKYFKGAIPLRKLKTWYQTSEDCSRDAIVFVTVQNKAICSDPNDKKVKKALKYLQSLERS", "assay": "ranking Fab ELISA with bt-human and bt-cyno CCL17"}}, "data": [{"binder": "B1", "values": [{"measurement": "binding result", "setting": "human CCL17", "value": "binds"}, {"measurement": "binding result", "setting": "cyno CCL17", "value": "binds"}]}, {"binder": "B2", "values": [{"measurement": "binding result", "setting": "cyno CCL17", "value": "binds"}]}, {"binder": "B3", "values": [{"measurement": "binding result", "setting": "human CCL17", "value": "binds"}, {"measurement": "binding result", "setting": "cyno CCL17", "value": "binds"}]}, {"binder": "B4", "values": [{"measurement": "binding result", "setting": "cyno CCL17", "value": "binds"}]}, {"binder": "B5", "values": [{"measurement": "binding result", "setting": "human CCL17", "value": "binds"}, {"measurement": "binding result", "setting": "cyno CCL17", "value": "binds"}]}]}
